Measurements from patent US20230235048A1 (PROTHENA BIOSCIENCES, published 2023).

T1: extracellular domain (ECD) of recombinant human Sortilin with a C-terminal HIS tag (ECD-huSortilin-HIS) (human, UniProt Q99523 78-755)
T1 construct: Bought (R&D Systems); also called human sortilin-ECD; not shown: C-terminal HIS tag
T1 sequence: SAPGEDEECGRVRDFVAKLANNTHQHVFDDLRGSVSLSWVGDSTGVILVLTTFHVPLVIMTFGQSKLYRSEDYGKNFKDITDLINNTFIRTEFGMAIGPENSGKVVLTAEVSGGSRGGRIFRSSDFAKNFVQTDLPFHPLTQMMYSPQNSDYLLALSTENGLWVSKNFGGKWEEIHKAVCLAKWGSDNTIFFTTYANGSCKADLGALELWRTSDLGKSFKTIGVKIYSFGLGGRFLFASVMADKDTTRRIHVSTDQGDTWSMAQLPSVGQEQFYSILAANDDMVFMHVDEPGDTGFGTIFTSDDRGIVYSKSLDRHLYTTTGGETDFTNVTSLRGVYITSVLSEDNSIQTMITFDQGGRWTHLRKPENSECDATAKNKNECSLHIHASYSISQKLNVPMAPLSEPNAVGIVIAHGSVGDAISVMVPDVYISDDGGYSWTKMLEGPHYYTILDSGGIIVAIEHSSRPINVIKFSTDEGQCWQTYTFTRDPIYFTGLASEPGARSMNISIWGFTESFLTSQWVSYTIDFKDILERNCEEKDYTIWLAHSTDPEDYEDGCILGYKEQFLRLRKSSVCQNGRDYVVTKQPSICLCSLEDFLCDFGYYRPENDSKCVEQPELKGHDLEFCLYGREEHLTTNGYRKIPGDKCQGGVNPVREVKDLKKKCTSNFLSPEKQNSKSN

B1: humanized 11M14 hu11M14VHv1b/hu11M14VLv2b (antibody, V domains shown)
VH: EVQLVESGGGLVQPGGSLRLSCAASGFTFNIYGMSWVRQAPGKGLEWVATISSGGIYTYYPDILKGRFTISRDNAKNSLYLQMNSLRAEDTAVYYCARHPGGAMDYWGQGTLVTVSS
VL: DIQMTQSPSSLSASVGDRVTITCRVSENIYSNLAWYQQKPGKSPKLLVYAATNLADGVPSRFSGSGSGTDYTLTISSLQPEDFATYYCQHFWGTPPWTFGQGTKLEIK
notes: Human IgG; also called 11M14H1bL2b
B2: humanized 11M14 hu11M14VHv2b/hu11M14VLv4b (antibody, V domains shown)
VH: EVQLVESGGGLVQPGGSLRLSCAASGFTFNIYGMSWVRQAPGKGLEWVATISSGGIYTYYPDILKGRFTISRDNAKNSLYLQMNSGRAEDTAVYYCARHPGGAMDYWGQGTLVTVSS
VL: DIQMTQSPSSLSASVGDRVTITCRVSENIYSNLAWYQQKPGKSPKLLVYAATNIADGVPSRFSGSGSGTDYTLTISSLQPEDFATYYCQHFWGTPPWTFGQGTKLEIK
notes: Human IgG; also called 11M14H2bL4b
B3: humanized 11M14 hu11M14VHv1b/hu11M14VLv3b (antibody, V domains shown)
VH: EVQLVESGGGLVQPGGSLRLSCAASGFTFNIYGMSWVRQAPGKGLEWVATISSGGIYTYYPDILKGRFTISRDNAKNSLYLQMNSLRAEDTAVYYCARHPGGAMDYWGQGTLVTVSS
VL: DIQMTQSPSSLSASVGDRVTITCRVSENIYSNLAWYQQKPGKSPKLLVYAATNGADGVPSRFSGSGSGTDYTLTISSLQPEDFATYYCQHFWGTPPWTFGQGTKLEIK
notes: Human IgG; also called 11M14H1bL3b; hu11M14H1bL3b
B4: humanized 11M14 hu11M14VHv2b/hu11M14VLv3b (antibody, V domains shown)
VH: EVQLVESGGGLVQPGGSLRLSCAASGFTFNIYGMSWVRQAPGKGLEWVATISSGGIYTYYPDILKGRFTISRDNAKNSLYLQMNSGRAEDTAVYYCARHPGGAMDYWGQGTLVTVSS
VL: DIQMTQSPSSLSASVGDRVTITCRVSENIYSNLAWYQQKPGKSPKLLVYAATNGADGVPSRFSGSGSGTDYTLTISSLQPEDFATYYCQHFWGTPPWTFGQGTKLEIK
notes: Human IgG; also called 11M14H2bL3b
B5: humanized 11M14 hu11M14VHv3b/hu11M14VLv3b (antibody, V domains shown)
VH: EVQLVESGGGLVQPGGSLRLSCAASGFTFNIYGMSWVRQAPGKGLEWVATISSGGIYTYYPDILKGRFTISRDNAKNSLYGQMNSLRAEDTAVYYCARHPGGAMDYWGQGTLVTVSS
VL: DIQMTQSPSSLSASVGDRVTITCRVSENIYSNLAWYQQKPGKSPKLLVYAATNGADGVPSRFSGSGSGTDYTLTISSLQPEDFATYYCQHFWGTPPWTFGQGTKLEIK
notes: Human IgG; also called 11M14H3bL3b
B6: humanized 11M14 hu11M14VHv3b/hu11M14VLv2b (antibody, V domains shown)
VH: EVQLVESGGGLVQPGGSLRLSCAASGFTFNIYGMSWVRQAPGKGLEWVATISSGGIYTYYPDILKGRFTISRDNAKNSLYGQMNSLRAEDTAVYYCARHPGGAMDYWGQGTLVTVSS
VL: DIQMTQSPSSLSASVGDRVTITCRVSENIYSNLAWYQQKPGKSPKLLVYAATNLADGVPSRFSGSGSGTDYTLTISSLQPEDFATYYCQHFWGTPPWTFGQGTKLEIK
notes: Human IgG; also called 11M14H3bL2b
B7: humanized 11M14 hu11M14VHv1b/hu11M14VLv4b (antibody, V domains shown)
VH: EVQLVESGGGLVQPGGSLRLSCAASGFTFNIYGMSWVRQAPGKGLEWVATISSGGIYTYYPDILKGRFTISRDNAKNSLYLQMNSLRAEDTAVYYCARHPGGAMDYWGQGTLVTVSS
VL: DIQMTQSPSSLSASVGDRVTITCRVSENIYSNLAWYQQKPGKSPKLLVYAATNIADGVPSRFSGSGSGTDYTLTISSLQPEDFATYYCQHFWGTPPWTFGQGTKLEIK
notes: Human IgG; also called 11M14H1bL4b
B8: humanized 11M14 hu11M14VHv2b/hu11M14VLv2b (antibody, V domains shown)
VH: EVQLVESGGGLVQPGGSLRLSCAASGFTFNIYGMSWVRQAPGKGLEWVATISSGGIYTYYPDILKGRFTISRDNAKNSLYLQMNSGRAEDTAVYYCARHPGGAMDYWGQGTLVTVSS
VL: DIQMTQSPSSLSASVGDRVTITCRVSENIYSNLAWYQQKPGKSPKLLVYAATNLADGVPSRFSGSGSGTDYTLTISSLQPEDFATYYCQHFWGTPPWTFGQGTKLEIK
notes: Human IgG; also called 11M14H2bL2b
B9: chimeric 11M14 (antibody, human IgG1, kappa, L234A L235A, V domains shown)
VH: EVQLVESGGDLVKPGGSLKLSCAASGFTFNIYGMSWVRQTPDKRLEWVATISSGGIYTYYPDILKGRFTISRDNAKNTLYLQMSSLKSEDTAMYYCARHPGGAMDYWGQGTSVTVSS
VL: DIQMTQSPASLSVSVGETVTITCRVSENIYSNLAWYQQKQGKSPHLLVYAATNLADGVPSRFSGSGSGTQYSLKINSLQSEDFGSYYCQHFWGTPPWTFGGGTKLEIKR
B10: humanized 5E20 hu5E20VHv1/hu5E20VLv1 (antibody, V domains shown)
VH: EVQLLESGGGLVQPGGSLRLSCAASGFTFSTYGMSWVRQAPGKGLEWVAIISSGGSYTYYSDTVKGRFTISRDNSKNTLYLQMNSLRAEDTAVYYCSRSSSHWYFDVWGQGTLVTVSS
VL: DIQMTQSPSSLSASVGDRVTITCHASQGISSNIGWLQQKPGKAFKGLIYHGTNLKDGVPSRFSGSGSGADFTLTISSLQPEDFATYFCVQYAQFPYTFGGGTKVEIR
notes: Human IgG (detected or captured with anti-human IgG; huIgG1 control); also called 5E20H1L1
B11: humanized 5E20 hu5E20VHv2/hu5E20VLv2 (antibody, V domains shown)
VH: EVQLVESGGGLVQPGGSLRLSCAASGFTFSTYGMSWVRQAPGKGLEWVAIISSGGSYTYYSDTVKGRFTISRDNSKNSLYLQMNSLRAEDTAVYYCSRSSSHWYFDVWGQGTLVTVSS
VL: DIQMTQSPSSVSASVGDRVTITCHASQGISSNIGWLQQKPGKAFKGLIYHGTNLKDGVPSRFSGSGSGADFTLTISSLQPEDFATYFCVQYAQFPYTFGQGTKVEIR
notes: Human IgG; also called 5E20H2L2
B12: humanized 5E20 hu5E20VHv1/hu5E20VLv2 (antibody, V domains shown)
VH: EVQLLESGGGLVQPGGSLRLSCAASGFTFSTYGMSWVRQAPGKGLEWVAIISSGGSYTYYSDTVKGRFTISRDNSKNTLYLQMNSLRAEDTAVYYCSRSSSHWYFDVWGQGTLVTVSS
VL: DIQMTQSPSSVSASVGDRVTITCHASQGISSNIGWLQQKPGKAFKGLIYHGTNLKDGVPSRFSGSGSGADFTLTISSLQPEDFATYFCVQYAQFPYTFGQGTKVEIR
notes: Human IgG; also called 5E20H1L2
B13: humanized 5E20 hu5E20VHv1/hu5E20VLv3 (antibody, V domains shown)
VH: EVQLLESGGGLVQPGGSLRLSCAASGFTFSTYGMSWVRQAPGKGLEWVAIISSGGSYTYYSDTVKGRFTISRDNSKNTLYLQMNSLRAEDTAVYYCSRSSSHWYFDVWGQGTLVTVSS
VL: DIQMTQSPSSVSASVGDRVTITCHASQGISSNIGWLQQKPGKAFKGLIYHGTNLKDGVPSRFSGSGSGADFTLTISSLQPEDFATYFCVQYAQFPYTFGQGTKVEKR
notes: Human IgG; also called 5E20H1L3
B14: humanized 5E20 hu5E20VHv2/hu5E20VLv1 (antibody, V domains shown)
VH: EVQLVESGGGLVQPGGSLRLSCAASGFTFSTYGMSWVRQAPGKGLEWVAIISSGGSYTYYSDTVKGRFTISRDNSKNSLYLQMNSLRAEDTAVYYCSRSSSHWYFDVWGQGTLVTVSS
VL: DIQMTQSPSSLSASVGDRVTITCHASQGISSNIGWLQQKPGKAFKGLIYHGTNLKDGVPSRFSGSGSGADFTLTISSLQPEDFATYFCVQYAQFPYTFGGGTKVEIR
notes: Human IgG; also called 5E20H2L1
B15: humanized 5E20 hu5E20VHv2/hu5E20VLv3 (antibody, V domains shown)
VH: EVQLVESGGGLVQPGGSLRLSCAASGFTFSTYGMSWVRQAPGKGLEWVAIISSGGSYTYYSDTVKGRFTISRDNSKNSLYLQMNSLRAEDTAVYYCSRSSSHWYFDVWGQGTLVTVSS
VL: DIQMTQSPSSVSASVGDRVTITCHASQGISSNIGWLQQKPGKAFKGLIYHGTNLKDGVPSRFSGSGSGADFTLTISSLQPEDFATYFCVQYAQFPYTFGQGTKVEKR
notes: Human IgG; also called 5E20H2L3

Columns and labels:
[1] = target: T1, extracellular domain (ECD) of …; assay: ELISA, ECD-huSortilin-HIS coated at 1 ug/mL, goat anti-human IgG-HRP, chemiluminescence
Experimental: 384-well ELISA plates were coated with 1 ug/mL recombinant ECD-huSortilin-HIS (20 uL/well) and incubated overnight at 4° C. all plates were blocked with 3% BSA in PBS for 1 hour at room temperature. Plates were then washed with Tris buffered saline containing 0.1% Tween20 (TBST) three times. 20 uL of humanized anti-Sortilin mAbs diluted 3-fold from 20 ug/mL to 0.3 ng/mL in 1% BSA in TBST were added to the wells, incubated for 1 hour at room temperature and then washed as above. Goat anti-human IgG specific-HRP (Jackson Immunoresearch) diluted 1:7000 in 1% BSA in TBST was then added at 20 uL per well to react with the bound antibodies and plates were incubated for 1 hour before being washed as above. Super signal Pico chemiluminescent ELISA substrate (ThermoFisher) was used for detection. 20 uL of substrate was added to each well and Relative Light Units (RLU) were measured immediately using the SpectraMax Paradigm (Molecular Devices). Data was analyzed and EC₅₀ was calculated using graphed Prism.

[2] = target: T1, extracellular domain (ECD) of …; assay: SPR (Biacore T200), mAb captured by anti-human antibody on CM5, Sortilin 0.1-300 nM as analyte, global 1:1 fit
Experimental: Analysis was performed using a Biacore T200 to compare the binding affinity of chimeric and humanized antibodies to recombinant human Sortilin. Anti-Human antibody was immobilized on sensor chip CM5 (GE Healthcare Life Sciences) via amine coupling, and humanized antibodies (ligand) were captured to a level to ensure a maximum binding of analyte of 50 RU (approximately 100 RU of ligand binding). Various concentrations of Sortilin (ranging from 0.1 nM to 300 nM) were passed over the captured ligand at 50 μL/min in running buffer (HBS+0.05% P-20, 1 mg/mL BSA) for 300s association time and 1200s dissociation time. Regeneration of the chip surface was accomplished by 2 short injections of 3M MgCl. Data was blank subtracted to both a sensor not containing ligand and 0 nM analyte concentration. Analysis was performed using a global 1:1 fit with Biacore Insight Evaluation software (v2.0) with bulk refractive index set to zero RU.

| Binder | EC50 [1] | Kd [2] | koff [2] | kon [2] |
| --- | --- | --- | --- | --- |
| B1 | 0.08 µg/mL | 5.37 nM | 0.00193 s⁻¹ | 360000 M⁻¹ s⁻¹ |
| B2 | 0.1 µg/mL | 2.84 nM | 0.00117 s⁻¹ | 413000 M⁻¹ s⁻¹ |
| B3 | 0.07 µg/mL | 5.3 nM | 0.002 s⁻¹ | 377000 M⁻¹ s⁻¹ |
| B4 | 0.13 µg/mL | 2.99 nM | 0.00119 s⁻¹ | 398000 M⁻¹ s⁻¹ |
| B5 | 0.23 µg/mL | 9.17 nM | 0.00343 s⁻¹ | 374000 M⁻¹ s⁻¹ |
| B6 | 0.19 µg/mL | 7.07 nM | 0.00225 s⁻¹ | 319000 M⁻¹ s⁻¹ |
| B7 | 0.08 µg/mL | 5.32 nM | 0.0019 s⁻¹ | 357000 M⁻¹ s⁻¹ |
| B8 | 0.07 µg/mL | 2.86 nM | 0.0012 s⁻¹ | 421000 M⁻¹ s⁻¹ |
| B9 | 0.06 µg/mL | 2.52 nM | – | – |
| B10 | 0.12 µg/mL | – | – | – |
| B11 | 0.08 µg/mL | – | – | – |
| B12 | 0.12 µg/mL | – | – | – |
| B13 | 0.09 µg/mL | – | – | – |
| B14 | 0.12 µg/mL | – | – | – |
| B15 | 0.1 µg/mL | – | – | – |
